Test results as given in patent US20070089183.

Molecular target: CaM (endogenous calmodulin of Arabidopsis plants)

B1: DWF1(V531D), full length, expressed in planta from 35S::DWF1(V531D) (protein)
chain: MSDLQTPLVRPKRKKTWVDYFVKFRWIIVIFIVLPFSATFYFLIYLGDMWSESKSFEKRQKEHDENVKKVIKRLKGRDASKDGLVCTARKPWIAVGMRNVDYKRARHFEVDLGEFRNILEINKEKMTARVEPLVNMGQISRATVPMNLSLAVVAELDDLTVGGLINGYGIEGSSHIYGLFADTVEAYEIVLAGGELVRATRDNEYSDLYYAIPWSQGTLGLLVAAEIRLIKVKEYMRLTYIPVKGDLQALAQGYIDSFAPKDGDKSKIPDFVEGMVYNPTEGVMMVGTYASKEEAKKKGNKINNVGWWFKPWFYQHAQTALKKGQFVEYIPTREYYHRHTRCLYWEGKLILPFGDQFWFRYLLGWLMPPKVSLLKATQGEAIRNYYHDMHVIQDMLVPLYKVGDALEWVHREMEVYPIWLCPHKLFKQPIKGQIYPEPGFEYENRQGDTEDAQMYTDVGVYYAPGCVLRGEEFDGSEAVRRMEKWLIENHGFQPQYAVSELDEKSFWRMFNGELYEECRKKYRAIGTFMSDYYKSKKGRKTEKEVREAEQAHLETAYAEAD
For B1, the “complementation of the dwf1 null mutant (plant phenotype, height)” value was “showed some degree of phenotype rescue, with round, expanded leaves but unextended petioles at the rosette stage and bushy flowering stems reaching up to 40% of the height of the wild-type plant”.

B2: DWF1(KYR521-523DGD), full length, expressed in planta from 35S::DWF1(KYR521-523DGD) (protein)
chain: MSDLQTPLVRPKRKKTWVDYFVKFRWIIVIFIVLPFSATFYFLIYLGDMWSESKSFEKRQKEHDENVKKVIKRLKGRDASKDGLVCTARKPWIAVGMRNVDYKRARHFEVDLGEFRNILEINKEKMTARVEPLVNMGQISRATVPMNLSLAVVAELDDLTVGGLINGYGIEGSSHIYGLFADTVEAYEIVLAGGELVRATRDNEYSDLYYAIPWSQGTLGLLVAAEIRLIKVKEYMRLTYIPVKGDLQALAQGYIDSFAPKDGDKSKIPDFVEGMVYNPTEGVMMVGTYASKEEAKKKGNKINNVGWWFKPWFYQHAQTALKKGQFVEYIPTREYYHRHTRCLYWEGKLILPFGDQFWFRYLLGWLMPPKVSLLKATQGEAIRNYYHDMHVIQDMLVPLYKVGDALEWVHREMEVYPIWLCPHKLFKQPIKGQIYPEPGFEYENRQGDTEDAQMYTDVGVYYAPGCVLRGEEFDGSEAVRRMEKWLIENHGFQPQYAVSELDEKSFWRMFNGELYEECRKDGDAIGTFMSVYYKSKKGRKTEKEVREAEQAHLETAYAEAD
In the case of B2, the “complementation of the dwf1 null mutant (plant phenotype)” value is reported as “showed very slight phenotypic rescue”.

B3: DWF1(Δ518-539), full length, expressed in planta from 35S::DWF1(Δ518-539) (protein)
chain: MSDLQTPLVRPKRKKTWVDYFVKFRWIIVIFIVLPFSATFYFLIYLGDMWSESKSFEKRQKEHDENVKKVIKRLKGRDASKDGLVCTARKPWIAVGMRNVDYKRARHFEVDLGEFRNILEINKEKMTARVEPLVNMGQISRATVPMNLSLAVVAELDDLTVGGLINGYGIEGSSHIYGLFADTVEAYEIVLAGGELVRATRDNEYSDLYYAIPWSQGTLGLLVAAEIRLIKVKEYMRLTYIPVKGDLQALAQGYIDSFAPKDGDKSKIPDFVEGMVYNPTEGVMMVGTYASKEEAKKKGNKINNVGWWFKPWFYQHAQTALKKGQFVEYIPTREYYHRHTRCLYWEGKLILPFGDQFWFRYLLGWLMPPKVSLLKATQGEAIRNYYHDMHVIQDMLVPLYKVGDALEWVHREMEVYPIWLCPHKLFKQPIKGQIYPEPGFEYENRQGDTEDAQMYTDVGVYYAPGCVLRGEEFDGSEAVRRMEKWLIENHGFQPQYAVSELDEKSFWRMFNGELYEEKTEKEVREAEQAHLETAYAEAD
For B3, the “complementation of the dwf1 null mutant (plant phenotype)” value was “grew like the uncomplemented dwf1 mutants”.
